4 substances from IntAct's records for PubMed 20543817 can be followed below.

Experiment [1] addresses nlgnx_human NLGN4X (UniProt Q8N0W4).
Experiment [2] has as its target Nlgn1, Q62765-2.
Experiment [3] addresses nlgnx_human NLGN4X (UniProt Q8N0W4). This is another data set of the same source.
Experiment [4] addresses Nlgn1, Q62765-2. The source holds these as a separate data set.
The target in experiment [5] is Nlgn1, Q62765-2. This is another data set of the same source.
The target of experiment [6] is nlgnx_human NLGN4X (UniProt Q8N0W4). The source holds these as a separate data set.
Experiment [7] deals with Nlgn1, Q62765-2. The source holds these as a separate data set.
For experiment [8], the target named is nlgnx_human NLGN4X (UniProt Q8N0W4). The source holds these as a separate data set.

Sequence of Nlgn1, Q62765-2 (Q62765 other isoform, or with tags, fused parts or gaps): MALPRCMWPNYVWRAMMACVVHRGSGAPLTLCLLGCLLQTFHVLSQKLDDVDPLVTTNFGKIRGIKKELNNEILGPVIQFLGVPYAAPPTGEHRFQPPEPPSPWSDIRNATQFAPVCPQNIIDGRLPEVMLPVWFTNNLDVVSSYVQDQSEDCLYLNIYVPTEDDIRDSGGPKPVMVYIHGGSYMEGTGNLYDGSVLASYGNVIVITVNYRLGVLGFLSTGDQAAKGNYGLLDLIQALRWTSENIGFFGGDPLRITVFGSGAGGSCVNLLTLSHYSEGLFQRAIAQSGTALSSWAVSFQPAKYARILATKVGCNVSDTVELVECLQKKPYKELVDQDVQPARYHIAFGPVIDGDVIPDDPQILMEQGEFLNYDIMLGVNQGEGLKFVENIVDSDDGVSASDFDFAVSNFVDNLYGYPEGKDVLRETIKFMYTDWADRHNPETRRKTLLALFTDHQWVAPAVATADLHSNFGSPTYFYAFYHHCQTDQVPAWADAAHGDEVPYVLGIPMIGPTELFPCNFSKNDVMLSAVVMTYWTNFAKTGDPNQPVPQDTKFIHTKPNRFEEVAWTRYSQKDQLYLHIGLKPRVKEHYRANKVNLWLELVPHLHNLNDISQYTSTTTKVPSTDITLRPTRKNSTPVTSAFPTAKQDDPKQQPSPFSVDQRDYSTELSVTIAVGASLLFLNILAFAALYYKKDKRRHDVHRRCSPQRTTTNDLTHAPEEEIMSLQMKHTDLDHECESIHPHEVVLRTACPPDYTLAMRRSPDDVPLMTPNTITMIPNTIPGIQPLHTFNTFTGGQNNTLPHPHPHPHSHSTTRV
Sequence of Neurexin-1-beta (Rattus norvegicus (Rat)), Q63373-3 R202A (Q63373 other isoform, or with tags, fused parts or gaps R202A): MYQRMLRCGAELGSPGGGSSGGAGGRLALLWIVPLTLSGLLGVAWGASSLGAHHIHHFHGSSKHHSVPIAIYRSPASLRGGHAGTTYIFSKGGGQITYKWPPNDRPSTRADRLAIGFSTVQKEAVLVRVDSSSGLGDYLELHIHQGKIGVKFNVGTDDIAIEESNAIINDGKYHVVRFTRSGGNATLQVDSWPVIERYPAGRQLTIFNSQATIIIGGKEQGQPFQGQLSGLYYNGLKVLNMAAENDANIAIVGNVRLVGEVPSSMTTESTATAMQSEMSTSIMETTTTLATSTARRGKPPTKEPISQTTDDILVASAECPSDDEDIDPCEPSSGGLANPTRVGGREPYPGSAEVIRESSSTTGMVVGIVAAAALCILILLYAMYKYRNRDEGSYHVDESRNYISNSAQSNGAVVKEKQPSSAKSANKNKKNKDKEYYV
Sequence of Neurexin-1-beta (Rattus norvegicus (Rat)), Q63373-3 N103A (Q63373 other isoform, or with tags, fused parts or gaps N103A): as the sequence (Q63373 other isoform, or with tags, fused parts or gaps R202A) above
Sequence of Neurexin-1-beta (Rattus norvegicus (Rat)), Q63373-3 R109A (Q63373 other isoform, or with tags, fused parts or gaps R109A): as the sequence (Q63373 other isoform, or with tags, fused parts or gaps R202A) above
Sequence of Neurexin-1-beta (Rattus norvegicus (Rat)), Q63373-3 I206A (Q63373 other isoform, or with tags, fused parts or gaps I206A): as the sequence (Q63373 other isoform, or with tags, fused parts or gaps R202A) above

As to “Neurexin-1-beta (Rattus norvegicus (Rat)), Q63373-3 I206A”, the “effect of a mutation on the interaction” value in the experiment with nlgnx_human NLGN4X [1] was “disrupting interaction”; in the experiment with Nlgn1, Q62765-2 [2], “disrupting interaction”.
As to “Neurexin-1-beta (Rattus norvegicus (Rat)), Q63373-3 N103A”, the “effect of a mutation on the interaction” value with nlgnx_human NLGN4X [3] is “decreasing interaction”; in the experiment with Nlgn1, Q62765-2 [4] it was “decreasing interaction”.
Take “Neurexin-1-beta (Rattus norvegicus (Rat)), Q63373-3 R109A”: the “effect of a mutation on the interaction” value is on record as “decreasing interaction” in the experiment with Nlgn1, Q62765-2 [5] and “disrupting interaction” in the experiment with nlgnx_human NLGN4X [6].
On to “Neurexin-1-beta (Rattus norvegicus (Rat)), Q63373-3 R202A”, for which the “effect of a mutation on the interaction” value with Nlgn1, Q62765-2 [7] was “decreasing interaction”; in the experiment with nlgnx_human NLGN4X [8], “disrupting interaction”.
